{
  "source": "paper PMC5515885",
  "origin": "cited, not measured here",
  "molecular_target": "Nup153 (Homo sapiens) (UniProt P49790)",
  "sequence (P49790 2-1475)": "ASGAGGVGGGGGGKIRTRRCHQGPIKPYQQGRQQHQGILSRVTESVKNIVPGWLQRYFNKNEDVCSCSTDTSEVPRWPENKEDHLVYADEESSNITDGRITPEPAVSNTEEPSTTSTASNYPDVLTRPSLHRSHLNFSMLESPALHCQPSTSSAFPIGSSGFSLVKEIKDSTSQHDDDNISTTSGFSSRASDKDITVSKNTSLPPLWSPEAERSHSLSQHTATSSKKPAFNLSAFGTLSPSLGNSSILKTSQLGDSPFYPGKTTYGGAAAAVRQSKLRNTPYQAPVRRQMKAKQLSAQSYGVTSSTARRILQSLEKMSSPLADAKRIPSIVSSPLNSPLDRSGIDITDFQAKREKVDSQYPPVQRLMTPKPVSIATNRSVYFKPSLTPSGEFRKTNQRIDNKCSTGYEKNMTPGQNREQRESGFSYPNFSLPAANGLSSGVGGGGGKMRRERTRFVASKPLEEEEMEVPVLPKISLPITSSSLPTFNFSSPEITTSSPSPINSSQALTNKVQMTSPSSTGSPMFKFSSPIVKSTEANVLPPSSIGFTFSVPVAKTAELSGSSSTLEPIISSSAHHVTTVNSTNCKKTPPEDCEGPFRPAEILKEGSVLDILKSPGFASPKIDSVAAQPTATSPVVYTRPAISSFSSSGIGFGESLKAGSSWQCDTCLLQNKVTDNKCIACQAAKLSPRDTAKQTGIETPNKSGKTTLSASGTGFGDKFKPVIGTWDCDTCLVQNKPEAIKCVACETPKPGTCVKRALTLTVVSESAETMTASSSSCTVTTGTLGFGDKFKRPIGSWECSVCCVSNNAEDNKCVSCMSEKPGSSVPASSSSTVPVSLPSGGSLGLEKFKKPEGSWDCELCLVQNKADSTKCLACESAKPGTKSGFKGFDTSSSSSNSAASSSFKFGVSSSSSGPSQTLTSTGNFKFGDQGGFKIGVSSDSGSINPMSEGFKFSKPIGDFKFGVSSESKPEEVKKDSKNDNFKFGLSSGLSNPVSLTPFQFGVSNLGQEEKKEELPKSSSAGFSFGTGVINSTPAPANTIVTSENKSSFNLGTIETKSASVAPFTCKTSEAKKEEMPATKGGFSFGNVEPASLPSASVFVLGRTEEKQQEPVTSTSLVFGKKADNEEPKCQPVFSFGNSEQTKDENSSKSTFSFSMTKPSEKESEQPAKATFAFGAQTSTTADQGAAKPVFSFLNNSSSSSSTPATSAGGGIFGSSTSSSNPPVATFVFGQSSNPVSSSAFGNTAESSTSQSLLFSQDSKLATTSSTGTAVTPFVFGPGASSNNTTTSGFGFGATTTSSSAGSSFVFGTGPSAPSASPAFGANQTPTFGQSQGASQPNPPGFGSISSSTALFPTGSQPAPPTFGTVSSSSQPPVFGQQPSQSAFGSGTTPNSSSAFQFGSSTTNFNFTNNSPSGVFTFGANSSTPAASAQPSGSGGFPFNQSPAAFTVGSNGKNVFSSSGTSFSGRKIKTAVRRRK",
  "data": [
    {"substance": "importin beta (from UniProt Q14974)", "values": [
      {"measurement": "Kd", "value": 9, "unit": "nM"}
    ]}
  ]
}
